{"source": "paper PMC9666535", "target": "PCNA N107C labeled with Cy5 (human) (UniProt P12004)", "sequence (P12004 whole entry N107C)": "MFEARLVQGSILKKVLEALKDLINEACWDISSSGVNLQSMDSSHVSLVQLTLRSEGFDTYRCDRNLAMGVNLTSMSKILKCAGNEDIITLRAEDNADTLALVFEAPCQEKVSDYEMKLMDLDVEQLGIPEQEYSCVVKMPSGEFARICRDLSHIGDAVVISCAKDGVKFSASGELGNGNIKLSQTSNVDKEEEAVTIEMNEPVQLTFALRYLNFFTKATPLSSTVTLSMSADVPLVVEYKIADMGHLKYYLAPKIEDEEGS", "assay": "native gel or EMSA; protein-protein EMSA in solution, no DNA: 1 nM PCNA-Cy5 with increasing Polδ Exo^− or Lig1, 20 min at RT, 6% non-denaturing TBE-PAGE; bound PCNA fitted to a quadratic isotherm", "data": [{"substance": "Polδ Exo^− (D515V in p125) (from UniProt P28340 1-1107; Q9HCU8 1-107) (complex)", "values": [{"measurement": "Kd", "value": 15, "unit": "nM"}]}]}
